The results in this text go back to the supplement of paper PMC10567573.

The chains are these.
B1: FBXO39 (parent)
chain: PSRVHASEVESAVWYVKKFGRYLE
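Further: lentivirally expressed fusions sorted by FACS into six bins by GFP to DsRed ratio, PSI derived from sequencing read proportions per bin multiplied by bin number.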

This data set covers variants of B1. The data set can be described thus: protein stability index of a GFP-peptide fusion (GPS, HEK-293T) (PSI 1-6); higher = more stable. The settings on record: c terminus: a fixed tail appended.
Take PSRVHVSEVESAVWYVKKFGRYLE [A6V]: the protein stability index is 1.7.
To PSRVHKSEVESAVWYVKKFGRYLE [A6K] belongs 1.79; to PSRVHRSEVESAVWYVKKFGRYLE [A6R], 1.56; to PSRVHFSEVESAVWYVKKFGRYLE [A6F], 3.3.
With PSRVHNSEVESAVWYVKKFGRYLE [A6N] the figure was 1.74; with PSRVHESEVESAVWYVKKFGRYLE [A6E], 2.32.
With PSRVHTSEVESAVWYVKKFGRYLE [A6T] the figure was 2.4.
As to PSRVHSSEVESAVWYVKKFGRYLE [A6S], the protein stability index was 2.72.
To PSRVHISEVESAVWYVKKFGRYLE [A6I] belongs 2.06; to PSRVHWSEVESAVWYVKKFGRYLE [A6W], 2.48; to PSRVHPSEVESAVWYVKKFGRYLE [A6P], 1.82.
As to PSRVHYSEVESAVWYVKKFGRYLE [A6Y], the protein stability index worked out at 1.58.
With PSRVHHSEVESAVWYVKKFGRYLE [A6H] the figure was 1.76; with PSRVHDSEVESAVWYVKKFGRYLE [A6D], 2.46; with PSRVHCSEVESAVWYVKKFGRYLE [A6C], 2.08.
With PSRVHMSEVESAVWYVKKFGRYLE [A6M] the figure was 1.27.
Turning to PSRVHQSEVESAVWYVKKFGRYLE [A6Q], the protein stability index stood at 2.11.
To PSRVHGSEVESAVWYVKKFGRYLE [A6G] belongs 1.97; to PSRVHLSEVESAVWYVKKFGRYLE [A6L], 2.24.
With PKRVHASEVESAVWYVKKFGRYLE [S2K] the figure was 2.67.
With PFRVHASEVESAVWYVKKFGRYLE [S2F] the figure was 1.64.
With PPRVHASEVESAVWYVKKFGRYLE [S2P], the protein stability index stood at 2.05.
To PGRVHASEVESAVWYVKKFGRYLE [S2G] belongs 1.94; to PLRVHASEVESAVWYVKKFGRYLE [S2L], 1.63; to PDRVHASEVESAVWYVKKFGRYLE [S2D], 2.19.
For PARVHASEVESAVWYVKKFGRYLE [S2A], the protein stability index is 1.71.
To PQRVHASEVESAVWYVKKFGRYLE [S2Q] belongs 2.18.
With PRRVHASEVESAVWYVKKFGRYLE [S2R] the figure was 1.82.
For the variant PVRVHASEVESAVWYVKKFGRYLE [S2V], the protein stability index was 1.46.
As for PWRVHASEVESAVWYVKKFGRYLE [S2W], the protein stability index stood at 1.89.
With PTRVHASEVESAVWYVKKFGRYLE [S2T] the figure was 2.31; with PMRVHASEVESAVWYVKKFGRYLE [S2M], 2.08; with PHRVHASEVESAVWYVKKFGRYLE [S2H], 1.76.
Take PERVHASEVESAVWYVKKFGRYLE [S2E]: the protein stability index stood at 2.29.
Consider PNRVHASEVESAVWYVKKFGRYLE [S2N], for which the protein stability index turned out to be 2.51.
To PYRVHASEVESAVWYVKKFGRYLE [S2Y] belongs 2.48; to PIRVHASEVESAVWYVKKFGRYLE [S2I], 2.33.
To PSRGHASEVESAVWYVKKFGRYLE [V4G] belongs 2.19; to PSRPHASEVESAVWYVKKFGRYLE [V4P], 1.92; to PSRTHASEVESAVWYVKKFGRYLE [V4T], 1.65.
To PSRDHASEVESAVWYVKKFGRYLE [V4D] belongs 2.52; to PSREHASEVESAVWYVKKFGRYLE [V4E], 2.52; to PSRHHASEVESAVWYVKKFGRYLE [V4H], 2.25.
PSRQHASEVESAVWYVKKFGRYLE [V4Q]: the protein stability index was 2.21.
To PSRWHASEVESAVWYVKKFGRYLE [V4W] belongs 2.06.
To PSRCHASEVESAVWYVKKFGRYLE [V4C] belongs 1.49.
With PSRKHASEVESAVWYVKKFGRYLE [V4K] the figure was 1.63; with PSRIHASEVESAVWYVKKFGRYLE [V4I], 2.39.
On to PSRSHASEVESAVWYVKKFGRYLE [V4S], for which the protein stability index is 1.58.
With PSRFHASEVESAVWYVKKFGRYLE [V4F], the protein stability index was determined as 1.54.
Regarding PSRAHASEVESAVWYVKKFGRYLE [V4A], the protein stability index came out at 2.29.
With PSRRHASEVESAVWYVKKFGRYLE [V4R] the figure was 1.8; with PSRLHASEVESAVWYVKKFGRYLE [V4L], 2.22.
To PSRYHASEVESAVWYVKKFGRYLE [V4Y] belongs 1.34; to PSRMHASEVESAVWYVKKFGRYLE [V4M], 1.97.
With PSRNHASEVESAVWYVKKFGRYLE [V4N] the figure was 2.13.
Regarding PSRVHAAEVESAVWYVKKFGRYLE [S7A], the protein stability index stood at 2.22.
To PSRVHAEEVESAVWYVKKFGRYLE [S7E] belongs 2.09; to PSRVHACEVESAVWYVKKFGRYLE [S7C], 1.48.
As to PSRVHADEVESAVWYVKKFGRYLE [S7D], the protein stability index was 2.68.
To FSRVHASEVESAVWYVKKFGRYLE [P1F] belongs 1.66; to SSRVHASEVESAVWYVKKFGRYLE [P1S], 1.52.
Turning to RSRVHASEVESAVWYVKKFGRYLE [P1R], the protein stability index was 1.71.
With DSRVHASEVESAVWYVKKFGRYLE [P1D] the figure was 2.08; with TSRVHASEVESAVWYVKKFGRYLE [P1T], 2.01.
With KSRVHASEVESAVWYVKKFGRYLE [P1K] the figure was 2.21; with HSRVHASEVESAVWYVKKFGRYLE [P1H], 2.06.
Turning to GSRVHASEVESAVWYVKKFGRYLE [P1G], the protein stability index is 2.83.
With ISRVHASEVESAVWYVKKFGRYLE [P1I] the figure was 1.83; with LSRVHASEVESAVWYVKKFGRYLE [P1L], 2.13.
To QSRVHASEVESAVWYVKKFGRYLE [P1Q] belongs 3.14; to ASRVHASEVESAVWYVKKFGRYLE [P1A], 2.45.
To MSRVHASEVESAVWYVKKFGRYLE [P1M] belongs 1.87.
For VSRVHASEVESAVWYVKKFGRYLE [P1V], the protein stability index stood at 1.7.
Regarding YSRVHASEVESAVWYVKKFGRYLE [P1Y], the protein stability index was found to be 1.63.
Regarding WSRVHASEVESAVWYVKKFGRYLE [P1W], the protein stability index stood at 2.5.
As to NSRVHASEVESAVWYVKKFGRYLE [P1N], the protein stability index was 1.72.
With ESRVHASEVESAVWYVKKFGRYLE [P1E] the figure was 1.84; with CSRVHASEVESAVWYVKKFGRYLE [P1C], 1.82; with PSAVHASEVESAVWYVKKFGRYLE [R3A], 2.04.
To PSLVHASEVESAVWYVKKFGRYLE [R3L] belongs 1.72; to PSYVHASEVESAVWYVKKFGRYLE [R3Y], 1.58.
With PSCVHASEVESAVWYVKKFGRYLE [R3C] the figure was 1.88; with PSNVHASEVESAVWYVKKFGRYLE [R3N], 2.19; with PSTVHASEVESAVWYVKKFGRYLE [R3T], 3.32.
As to PSVVHASEVESAVWYVKKFGRYLE [R3V], the protein stability index came out at 2.36.
Consider PSWVHASEVESAVWYVKKFGRYLE [R3W], for which the protein stability index is 2.4.
With PSQVHASEVESAVWYVKKFGRYLE [R3Q] the figure was 2.46; with PSDVHASEVESAVWYVKKFGRYLE [R3D], 2.9.
Consider PSMVHASEVESAVWYVKKFGRYLE [R3M], for which the protein stability index is 2.54.
With PSEVHASEVESAVWYVKKFGRYLE [R3E] the figure was 2.04; with PSSVHASEVESAVWYVKKFGRYLE [R3S], 2.1; with PSPVHASEVESAVWYVKKFGRYLE [R3P], 2.49.
To PSKVHASEVESAVWYVKKFGRYLE [R3K] belongs 1.83.
